T1: IL-2R CD122-CD132 on Jurkat-PD1+CD122+ cells (UniProt P14784 27-551; P31785 23-369)
T1 sequence (looked up) 1: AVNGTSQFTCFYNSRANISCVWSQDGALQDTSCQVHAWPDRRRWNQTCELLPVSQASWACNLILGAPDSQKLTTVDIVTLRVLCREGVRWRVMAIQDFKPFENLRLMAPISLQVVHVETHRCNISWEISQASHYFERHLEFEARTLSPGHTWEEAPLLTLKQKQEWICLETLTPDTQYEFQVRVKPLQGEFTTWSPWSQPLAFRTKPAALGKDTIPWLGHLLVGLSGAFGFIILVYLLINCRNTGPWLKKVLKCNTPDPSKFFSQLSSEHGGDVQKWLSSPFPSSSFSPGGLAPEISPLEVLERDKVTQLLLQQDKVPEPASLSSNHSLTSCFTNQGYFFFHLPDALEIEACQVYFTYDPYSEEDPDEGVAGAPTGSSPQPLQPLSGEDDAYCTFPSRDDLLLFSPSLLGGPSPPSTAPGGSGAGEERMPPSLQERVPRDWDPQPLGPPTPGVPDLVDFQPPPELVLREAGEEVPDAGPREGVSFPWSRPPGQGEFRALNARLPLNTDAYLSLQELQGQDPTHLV
T1 sequence (looked up) 2: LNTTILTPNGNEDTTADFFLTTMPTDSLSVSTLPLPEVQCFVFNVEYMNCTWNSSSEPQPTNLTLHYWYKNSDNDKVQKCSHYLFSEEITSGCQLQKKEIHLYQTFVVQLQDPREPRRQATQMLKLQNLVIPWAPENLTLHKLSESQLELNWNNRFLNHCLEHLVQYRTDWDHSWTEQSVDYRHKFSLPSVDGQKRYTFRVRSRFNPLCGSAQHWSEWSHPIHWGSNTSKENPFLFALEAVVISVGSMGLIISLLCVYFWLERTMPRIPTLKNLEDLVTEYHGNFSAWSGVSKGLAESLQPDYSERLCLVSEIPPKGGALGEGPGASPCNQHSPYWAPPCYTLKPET


molecular target: T1, IL-2R CD122-CD132 on Jurkat-PD1+CD122+ …; assay: cell-based or functional assay

EC50 value for pSTAT5 induction, Jurkat-PD-1+CD122+ cells | Binder
70 pM | QAB373 (bispecific antibody, human IgG1, kappa, L234A L235A) heavy 1: QVQLVQSGAEVKKPGASVKVSCKASGYTFTNFYIHWVRQAPGQGLEWMGSIYPNYGITAYNQKFKDRVTMTVDTSTSTAYMELRSLRSDDTAVYYCARGYSYAMDYWGQGTTVTVSSASVAAPSVFIFPPSDEQLKSGTASVVCLLNNFYPREAKVQWKVDNALQSGNSQESVTEQDSKDSTYSLSSTLTLSKADYEKHKVYACEVTHQGLSSPVTKSFNRGECDKTHTCPPCPAPEAAGGPSVFLFPPKPKDTLMISRTPEVTCVVVDVSHEDPEVKFNWYVDGVEVHNAKTKPREEQYNSTYRVVSVLTVLHQDWLNGKEYKCKVSNKALAAPIEKTISKAKGQPREPQVYTLPPSREEMTKNQVSLTCLVKGFYPSDIAVEWESNGQPENNYKTTPPVLDSDGSFFLTSKLTVDKSRWQQGNVFSCSVMHEALHNHYTQKSLSLSPGK light 1: DIQMTQSPSSVSASVGDRVTITCSASQGISGDLNWYQQKPGKAPKLLIYHTSQLHSDVPSRFSGSGSGTDFTLTISSLQPEDFATYYCQGYSKDLLTFGGGTKLEIKSSASTKGPSVFPLAPSSKSTSGGTAALGCLVKDYFPEPVTVSWNSGALTSGVHTFPAVLQSSGLYSLSSVVTVPSSSLGTQTYICNVNHKPSNTKVDKRVEPKSC heavy 2: EVQLVQSGAEVKKPGESLKISCKGSGYAFTNYLIEWVRQMPGKGLEWMGVINPGSGGTNYNEKFKGQVTISADKSISTAYLQWSSLKASDTAMYYCARWRGEGYYAYFDVWGQGTTVTVSSASTKGPSVFPLAPSSKSTSGGTAALGCLVKDYFPEPVTVSWNSGALTSGVHTFPAVLQSSGLYSLSSVVTVPSSSLGTQTYICNVNHKPSNTKVDKRVEPKSCDKTHTCPPCPAPEAAGGPSVFLFPPKPKDTLMISRTPEVTCVVVDVSHEDPEVKFNWYVDGVEVHNAKTKPREEQYNSTYRVVSVLTVLHQDWLNGKEYKCKVSNKALAAPIEKTISKAKGQPREPQVYTLPPSREEMTKNQVSLYCLVKGFYPSDIAVEWESNGQPENNYKTTPPVLDSDGSFFLYSKLTVDKSRWQQGNVFSCSVMHEALHNHYTQKSLSLSPGK light 2: not shown
0.12 nM | RIB426 (bispecific antibody, human IgG1, kappa, L234A L235A) heavy 1: QVQLVQSGAEVKKPGASVKVSCKASGYTFTNFYIHWVRQAPGQGLEWMGRIYPNYGITAYNQKFKDRVTMTVDTSTSTAYMELRSLRSDDTAVYYCARGYSYAMDYWGQGTTVTVSSASVAAPSVFIFPPSDEQLKSGTASVVCLLNNFYPREAKVQWKVDNALQSGNSQESVTEQDSKDSTYSLSSTLTLSKADYEKHKVYACEVTHQGLSSPVTKSFNRGECDKTHTCPPCPAPEAAGGPSVFLFPPKPKDTLMISRTPEVTCVVVDVSHEDPEVKFNWYVDGVEVHNAKTKPREEQYNSTYRVVSVLTVLHQDWLNGKEYKCKVSNKALAAPIEKTISKAKGQPREPQVYTLPPSREEMTKNQVSLTCLVKGFYPSDIAVEWESNGQPENNYKTTPPVLDSDGSFFLTSKLTVDKSRWQQGNVFSCSVMHEALHNHYTQKSLSLSPGK light 1: DIQMTQSPSSVSASVGDRVTITCSASQGISGDLNWYQQKPGKAPKLLIYHTSQRHSDVPSRFSGSGSGTDFTLTISSLQPEDFATYYCQGYSKDLLTFGGGTKLEIKSSASTKGPSVFPLAPSSKSTSGGTAALGCLVKDYFPEPVTVSWNSGALTSGVHTFPAVLQSSGLYSLSSVVTVPSSSLGTQTYICNVNHKPSNTKVDKRVEPKSC heavy 2: EVQLVQSGAEVKKPGESLKISCKGSGYAFTNYLIEWVRQMPGKGLEWMGVINPGSGGTNYNEKFKGQVTISADKSISTAYLQWSSLKASDTAMYYCARWRGEGYYAYFDVWGQGTTVTVSSASTKGPSVFPLAPSSKSTSGGTAALGCLVKDYFPEPVTVSWNSGALTSGVHTFPAVLQSSGLYSLSSVVTVPSSSLGTQTYICNVNHKPSNTKVDKRVEPKSCDKTHTCPPCPAPEAAGGPSVFLFPPKPKDTLMISRTPEVTCVVVDVSHEDPEVKFNWYVDGVEVHNAKTKPREEQYNSTYRVVSVLTVLHQDWLNGKEYKCKVSNKALAAPIEKTISKAKGQPREPQVYTLPPSREEMTKNQVSLYCLVKGFYPSDIAVEWESNGQPENNYKTTPPVLDSDGSFFLYSKLTVDKSRWQQGNVFSCSVMHEALHNHYTQKSLSLSPGK light 2: not shown
60 pM | MDS446 (bispecific antibody, human IgG1, kappa, L234A L235A) heavy 1: QVQLVQSGAEVKKPGASVKVSCKASGYTFTNFYIHWVRQAPGQGLEWMGSIYPNYGITAYNQKFKDRVTMTVDTSTSTAYMELRSLRSDDTAVYYCARGYSYAMDYWGQGTTVTVSSASTKGPSVFPLAPSSKSTSGGTAALGCLVKDYFPEPVTVSWNSGALTSGVHTFPAVLQSSGLYSLSSVVTVPSSSLGTQTYICNVNHKPSNTKVDKRVEPKSCDKTHTCPPCPAPEAAGGPSVFLFPPKPKDTLMISRTPEVTCVVVDVSHEDPEVKFNWYVDGVEVHNAKTKPREEQYNSTYRVVSVLTVLHQDWLNGKEYKCKVSNKALAAPIEKTISKAKGQPREPQVYTLPPSREEMTKNQVSLTCLVKGFYPSDIAVEWESNGQPENNYKTTPPVLDSDGSFFLTSKLTVDKSRWQQGNVFSCSVMHEALHNHYTQKSLSLSPGK light: DIQMTQSPSSVSASVGDRVTITCSASQGISGDLNWYQQKPGKAPKLLIYHTSQLHSDVPSRFSGSGSGTDFTLTISSLQPEDFATYYCQGYSKDLLTFGGGTKLEIKRTVAAPSVFIFPPSDEQLKSGTASVVCLLNNFYPREAKVQWKVDNALQSGNSQESVTEQDSKDSTYSLSSTLTLSKADYEKHKVYACEVTHQGLSSPVTKSFNRGEC heavy 2: AIRLTQSPSSFSASTGDRVTITCKASQSVDYGGGNFHLRPRDLISNINVIVLELKGSETTFMCEYADETATIVEFLNRWITFSQSIISTLTPTSSSTKKTQLQLEHLLLDLQMILNGINNYKNPKLTRMLTFKFYMPKKATELKHLQCLEEELKPLEEVLNLAQSKGGGGDSYMNWYQQKPGKAPKLLIYAASNLESGVPSRFSGSGSGTDFTLTISSLQSEDFATYYCQQSNEDPYTFGGGTKVEIKGGGGSGGGGSGGGGSEVQLVQSGAEVKKPGESLKISCKGSGYAFTNYLIEWVRQMPGKGLEWMGVINPGSGGTNYNEKFKGQVTISADKSISTAYLQWSSLKASDTAMYYCARWRGEGYYAYFDVWGQGTTVTVSSGGGGSGGGGSQVQLVQSGAEVKKPGASVKVSCKASGYTFTNFYIHWVRQAPGQGLEWMGSIYPNYGITAYNQKFKDRVTMTVDTSTSTAYMELRSLRSDDTAVYYCARGYSYAMDYWGQGTTVTVSSASTKGPSVFPLAPSSKSTSGGTAALGCLVKDYFPEPVTVSWNSGALTSGVHTFPAVLQSSGLYSLSSVVTVPSSSLGTQTYICNVNHKPSNTKVDKRVEPKSCDKTHTCPPCPAPEAAGGPSVFLFPPKPKDTLMISRTPEVTCVVVDVSHEDPEVKFNWYVDGVEVHNAKTKPREEQYNSTYRVVSVLTVLHQDWLNGKEYKCKVSNKALAAPIEKTISKAKGQPREPQVYTLPPSREEMTKNQVSLYCLVKGFYPSDIAVEWESNGQPENNYKTTPPVLDSDGSFFLYSKLTVDKSRWQQGNVFSCSVMHEALHNHYTQKSLSLSPGK
60 pM | TMU471 (bispecific antibody, human IgG1, kappa, L234A L235A) heavy 1: QVQLVQSGAEVKKPGASVKVSCKASGYTFTNFYIHWVRQAPGQGLEWMGRIYPNYGITAYNQKFKDRVTMTVDTSTSTAYMELRSLRSDDTAVYYCARGYSYAMDYWGQGTTVTVSSASTKGPSVFPLAPSSKSTSGGTAALGCLVKDYFPEPVTVSWNSGALTSGVHTFPAVLQSSGLYSLSSVVTVPSSSLGTQTYICNVNHKPSNTKVDKRVEPKSCDKTHTCPPCPAPEAAGGPSVFLFPPKPKDTLMISRTPEVTCVVVDVSHEDPEVKFNWYVDGVEVHNAKTKPREEQYNSTYRVVSVLTVLHQDWLNGKEYKCKVSNKALAAPIEKTISKAKGQPREPQVYTLPPSREEMTKNQVSLTCLVKGFYPSDIAVEWESNGQPENNYKTTPPVLDSDGSFFLTSKLTVDKSRWQQGNVFSCSVMHEALHNHYTQKSLSLSPGK light: DIQMTQSPSSVSASVGDRVTITCSASQGISGDLNWYQQKPGKAPKLLIYHTSQRHSDVPSRFSGSGSGTDFTLTISSLQPEDFATYYCQGYSKDLLTFGGGTKLEIKRTVAAPSVFIFPPSDEQLKSGTASVVCLLNNFYPREAKVQWKVDNALQSGNSQESVTEQDSKDSTYSLSSTLTLSKADYEKHKVYACEVTHQGLSSPVTKSFNRGEC heavy 2: AIRLTQSPSSFSASTGDRVTITCKASQSVDYGGGNFHLRPRDLISNINVIVLELKGSETTFMCEYADETATIVEFLNRWITFSQSIISTLTPTSSSTKKTQLQLEHLLLDLQMILNGINNYKNPKLTRMLTFKFYMPKKATELKHLQCLEEELKPLEEVLNLAQSKGGGGDSYMNWYQQKPGKAPKLLIYAASNLESGVPSRFSGSGSGTDFTLTISSLQSEDFATYYCQQSNEDPYTFGGGTKVEIKGGGGSGGGGSGGGGSEVQLVQSGAEVKKPGESLKISCKGSGYAFTNYLIEWVRQMPGKGLEWMGVINPGSGGTNYNEKFKGQVTISADKSISTAYLQWSSLKASDTAMYYCARWRGEGYYAYFDVWGQGTTVTVSSGGGGSGGGGSQVQLVQSGAEVKKPGASVKVSCKASGYTFTNFYIHWVRQAPGQGLEWMGRIYPNYGITAYNQKFKDRVTMTVDTSTSTAYMELRSLRSDDTAVYYCARGYSYAMDYWGQGTTVTVSSASTKGPSVFPLAPSSKSTSGGTAALGCLVKDYFPEPVTVSWNSGALTSGVHTFPAVLQSSGLYSLSSVVTVPSSSLGTQTYICNVNHKPSNTKVDKRVEPKSCDKTHTCPPCPAPEAAGGPSVFLFPPKPKDTLMISRTPEVTCVVVDVSHEDPEVKFNWYVDGVEVHNAKTKPREEQYNSTYRVVSVLTVLHQDWLNGKEYKCKVSNKALAAPIEKTISKAKGQPREPQVYTLPPSREEMTKNQVSLYCLVKGFYPSDIAVEWESNGQPENNYKTTPPVLDSDGSFFLYSKLTVDKSRWQQGNVFSCSVMHEALHNHYTQKSLSLSPGK

Reference: patent publication US20260207767A1 (ANAVEON, published 2026)
